The text below walks through data of PMC4167179 (Results in Pharma Sciences, 2012).

The test system of series [1] is rat β-cell line RIN-m5F. Description: In vitro insulin secretion, static incubation of RIN-m5F cells. It is filed as cell-based. Conditions: for EC50: read-out: In vitro insulin secretion in rat β-cell line RIN-m5F, EC50, 2 mM glucose, 30 min incubation, rat insulin ELISA, mean ± SEM of three experiments. (In general: An ELISA detects its analyte on a solid surface through an enzyme-linked reagent.)

A short description of series [2]: Pharmacokinetics after subcutaneous injection in rats. Type of series: in vivo, Sprague-Dawley rats. Conditions: 1 mg/kg s.c.; for Cmax / tmax: plasma ELISA; for tmax: non-compartmental.

No end group written: not given here. mPEG 20 kDa = linear 20 kDa mPEG attached to the Gln side chain; mPEG 5 kDa = linear 5 kDa mPEG attached to the Gln side chain

One may read the EC50 as the concentration giving half of the maximal effect. On to “GLP-1-(7-36)-amide-Q^23-PEG 50 kDa: GLP-1(7-36)-amide monopegylated at glutamine 23 with branched 50 kDa mPEG-NH2”, for which, in series [1], the EC50 was determined as 1870 ± 1 nM.

Regarding “GLP-1-(7-36)-(Q23N–A30Q)-amide-Q^30-PEG 20 kDa (HAEGTFTSDVSSYLEGNAAKEFIQ(mPEG 20 kDa)WLVKGR-NH2; UniProt P01275 98-127, looked up, variant Q23N A30Q)”, in series [1] (1/(EC50 analog/EC50 GLP-1(7-36)-amide)), the “In vitro insulin secretion, Relative potency” value is given as 0.017. The EC50 in series [1] is 35 ± 3 nM.

Usually Cmax stands for the highest concentration seen after dosing. As to “GLP-1-(7-36)-amide-Q^23-PEG 20 kDa: GLP-1(7-36)-amide monopegylated at glutamine 23 with linear 20 kDa mPEG-NH2”, in series [2] (0→96 h, linear trapezoidal rule, four animals), the “AUC (AUC96 h)” value is 16,799.8 ng/ml×h. Also, the “plasma concentration after 96 h” value in series [2] (96 h) is on record as “around 5 ng/ml”. In series [2] (four animals, 1 mg/kg), this substance displayed a Cmax of 640 ng/mL. In addition, in series [2] (four animals), the tmax is reported as 9 h. Besides, the EC50 in series [1] was found to be 34.4 ± 0.8 nM.

“GLP-1-(7-36)-(T11Q–Q23N)-amide-Q^11-PEG 5 kDa (HAEGQ(mPEG 5 kDa)FTSDVSSYLEGNAAKEFIAWLVKGR-NH2; UniProt P01275 98-127, looked up, variant T11Q Q23N)”: in series [1], the EC50 worked out at 106.3 ± 0.5 nM.

“GLP-1-(7-36)-amide-Q^23-PEG 5 kDa: GLP-1(7-36)-amide monopegylated at glutamine 23 with linear 5 kDa mPEG-NH2” displayed a t1/2 in series [2] (elimination phase of log transformed curve, four animals) of 1.7 h. In series [2] (four animals), this substance came in with a Cmax of 160.4 ng/mL and a tmax of 3 h.
